Experimental data from US20240116985A1 (published 2024).
Starred links: 1 amine or outer side, 2 acyl side, 3 side chain; linkers in the order of their positions; H or OH if unused. Positions of bridges follow the written chain, without caps; N, C: chain ends. Non-standard residues stand in square brackets, D forms with d. Primed or numbered codes have the meaning given here. B5(10) = 2-amino-2-(pent-4-en-1-yl)hept-6-enoic acid, bis(4-pentenyl)glycine, stitching residue bearing both staples, C=CCCCC(CCCC=C)(N[*:1])C(=O)[*:2]; PyrS2″ = (S)-3-amino-1-((pent-4-en-1-yloxy)carbonyl)pyrrolidine-3-carboxylic acid (stapling residue), C=CCCCOC(=O)N1CC[C@@](N[*:1])(C(=O)[*:2])C1; B5(4) = 2,2-bis(4-pentenyl)glycine = 2-amino-2-(pent-4-en-1-yl)hept-6-enoic acid (stitching residue), C=CCCCC(CCCC=C)(N[*:1])C(=O)[*:2]; B5(33) = 2-amino-2-(pent-4-en-1-yl)hept-6-enoic acid (bis-pentenylglycine, two olefin side chains), C=CCCCC(CCCC=C)(N[*:1])C(=O)[*:2]; B5(21) = 2-amino-2-(pent-4-en-1-yl)hept-6-enoic acid, bis(4-pentenyl)glycine (stitching residue), C=CCCCC(CCCC=C)(N[*:1])C(=O)[*:2]; SeN = (S)-5-(((allyloxy)carbonyl)(methyl)amino)-2-amino-2-methylpentanoic acid, C=CCOC(=O)N(C)CCC[C@](C)(N[*:1])C(=O)[*:2]; B5 = 2-amino-2-(pent-4-en-1-yl)hept-6-enoic acid, C=CCCCC(CCCC=C)(N[*:1])C(=O)[*:2]; B5(28) = 2,2-bis(4-pentenyl)glycine, C=CCCCC(CCCC=C)(N[*:1])C(=O)[*:2]; Phe(3-COOH) = N[C@@H](Cc1cccc(C(=O)O)c1)C(=O)O; Phe(2-CF3) = N[C@@H](Cc1ccccc1C(F)(F)F)C(=O)O; S7 = C[C@@](CCCCCC=[*:3])(N[*:1])C(=O)[*:2]; 2Nal = N[C@@H](Cc1ccc2ccccc2c1)C(=O)O; αAllylPro = C=CC[C@@]1(C(=O)O)CCCN1; tBuAla = CC(C)(C)C[C@H](N)C(=O)O; Aad = N[C@@H](CCCC(=O)O)C(=O)O; S8 = C=CCCCCCC[C@](C)(N)C(=O)O; Aib = CC(C)(N)C(=O)O

T1: B-cat-Halo (beta-catenin HaloTag fusion expressed in HEK293 cells) (Homo sapiens (Human), UniProt P35222 1-781)
T1 sequence: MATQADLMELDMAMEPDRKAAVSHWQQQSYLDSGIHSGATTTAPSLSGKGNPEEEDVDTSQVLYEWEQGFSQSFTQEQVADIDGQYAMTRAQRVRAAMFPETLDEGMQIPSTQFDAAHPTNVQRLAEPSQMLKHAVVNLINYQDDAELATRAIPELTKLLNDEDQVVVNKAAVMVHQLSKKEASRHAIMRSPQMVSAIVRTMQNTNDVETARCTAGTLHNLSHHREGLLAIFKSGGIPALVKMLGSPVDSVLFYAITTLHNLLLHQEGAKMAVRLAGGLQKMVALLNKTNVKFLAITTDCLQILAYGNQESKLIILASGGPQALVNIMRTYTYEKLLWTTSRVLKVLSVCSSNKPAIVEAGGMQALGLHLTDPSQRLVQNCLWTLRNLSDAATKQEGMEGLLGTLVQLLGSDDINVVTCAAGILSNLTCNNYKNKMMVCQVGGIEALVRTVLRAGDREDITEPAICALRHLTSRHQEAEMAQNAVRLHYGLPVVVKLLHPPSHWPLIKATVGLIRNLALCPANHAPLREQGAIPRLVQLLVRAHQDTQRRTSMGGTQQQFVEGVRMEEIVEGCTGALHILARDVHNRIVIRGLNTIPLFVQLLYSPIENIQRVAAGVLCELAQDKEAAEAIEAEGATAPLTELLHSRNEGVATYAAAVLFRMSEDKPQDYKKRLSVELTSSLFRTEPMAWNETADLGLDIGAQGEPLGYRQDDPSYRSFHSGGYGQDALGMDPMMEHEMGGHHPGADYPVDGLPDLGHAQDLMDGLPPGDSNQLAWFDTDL

T2: beta-catenin (full-length, Uniprot ID P35222) (Homo sapiens (Human), UniProt P35222 2-781)
T2 construct: The FP protocol says 'full-length beta-Catenin (Uniprot ID P35222)'; also called bCat; B-Catenin
T2 sequence: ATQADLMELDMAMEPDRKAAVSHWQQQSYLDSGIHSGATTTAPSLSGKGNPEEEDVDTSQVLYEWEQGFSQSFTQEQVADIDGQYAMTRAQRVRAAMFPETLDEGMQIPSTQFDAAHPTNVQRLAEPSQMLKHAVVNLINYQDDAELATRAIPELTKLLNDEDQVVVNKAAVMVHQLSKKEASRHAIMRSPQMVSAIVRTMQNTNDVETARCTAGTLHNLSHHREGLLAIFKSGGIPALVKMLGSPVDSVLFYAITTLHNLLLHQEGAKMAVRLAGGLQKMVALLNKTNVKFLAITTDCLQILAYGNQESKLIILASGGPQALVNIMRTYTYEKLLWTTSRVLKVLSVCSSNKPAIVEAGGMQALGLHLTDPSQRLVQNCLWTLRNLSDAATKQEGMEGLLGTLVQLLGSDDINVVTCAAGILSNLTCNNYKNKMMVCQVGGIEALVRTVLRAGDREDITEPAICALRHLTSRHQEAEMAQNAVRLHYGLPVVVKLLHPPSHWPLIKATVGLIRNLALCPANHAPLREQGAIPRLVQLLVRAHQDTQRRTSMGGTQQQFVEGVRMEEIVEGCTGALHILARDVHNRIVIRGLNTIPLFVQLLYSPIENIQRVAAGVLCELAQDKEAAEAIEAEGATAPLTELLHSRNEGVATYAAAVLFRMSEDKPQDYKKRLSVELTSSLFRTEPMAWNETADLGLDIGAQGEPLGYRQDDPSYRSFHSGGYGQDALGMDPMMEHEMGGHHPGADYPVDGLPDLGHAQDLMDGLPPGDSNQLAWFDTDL

B1: I-127: Ac-PL3-Asp-Ala-B5-Asp-Gln-Ala-Ala-Phe-Val-S8-Phe-Trp-Gln-NH2 (peptide)
peptide: XDAXDQAAFVXFWQ
modifications: not fully specified; N-terminal Ac; PL3 at 1; B5 at 4; S8 at 11; C-terminal NH2; stapled by olefin metathesis (PL3-B5 and B5-S8)
notes: Stapled peptide
B2: I-133: Ac-PL3-Asp-Ala-B5-Asp-Glu-Ala-Ala-Phe-Val-S8-Phe-Trp-Aib-NH2 (peptide)
peptide: XDAXDEAAFVXFWX
modifications: not fully specified; N-terminal Ac; PL3 at 1; B5 at 4; S8 at 11; Aib at 14; C-terminal NH2; stapled by olefin metathesis (PL3-B5 and B5-S8)
notes: Stapled peptide

The binders below were run against T1, B-cat-Halo (beta-catenin HaloTag fusion …) (assay: cell-based or functional assay).

Binder	NanoBRET Abs IC50
Ac-[αAllylPro]D[tBuAla][B5(4)]D[Phe(3-COOH)]QAFL[PyrS2″][Phe(2-CF3)][2Nal]A-NH2 (staple 1-4, 4-11) [I-2461]	25.4 µM
Ac-[αAllylPro]D[tBuAla][B5(4)]D[Phe(3-COOH)]AAFL[PyrS2″][Phe(2-CF3)][RbMe2NapA]Q-NH2 (staple 1-4, 4-11) [I-2462]	4.7 µM

Each binder was assayed against T2, beta-catenin (full-length, Uniprot ID …) (assay: fluorescence polarization competition vs 5FAM-TCF4(10-53) on full-length beta-catenin).
Description: The plate was incubated protected from light for 60 minutes at 20° C. prior to read. Reads were performed on a CLARIOstar plate reader (BMG Labtech) in duplicate, and data were fitted to a 1:1 binding model with hill slope using an in-house script. All provided concentrations are final concentrations.

Binder	IC50
Ac-[αAllylPro]DA[B5(4)]DEAAFV[S8]FWQ-NH2 (staple 1-4, 4-11, Stapled (stitched) peptide) [I-123: Ac-PL3-Asp-Ala-B5-Asp-Glu-Ala-Ala-Phe-Val-S8-Phe-Trp-Gln-NH2]	2.11 µM
Ac-[αAllylPro]DA[B5(33)]DNAAFV[S8]FWQ-NH2 (staple 1-4, 4-11, Stapled peptide) [I-125: Ac-PL3-Asp-Ala-B5-Asp-Asn-Ala-Ala-Phe-Val-S8-Phe-Trp-Gln-NH2]	3.06 µM
B1	4.84 µM
Ac-[αAllylPro]DA[B5(4)]DEAAFV[S8]FWA-NH2 (staple 1-4, 4-11, Stapled peptide) [I-135: Ac-PL3-Asp-Ala-B5-Asp-Glu-Ala-Ala-Phe-Val-S8-Phe-Trp-Ala-NH2]	1.87 µM
Ac-[αAllylPro]DA[B5(10)]D[Aad]AAFV[S8]FWQ-NH2 (staple 1-4, 4-11, Stapled peptide) [I-129: Ac-PL3-Asp-Ala-B5-Asp-Aad-Ala-Ala-Phe-Val-S8-Phe-Trp-Gln-NH2]	1.98 µM
Ac-[αAllylPro]DA[B5(4)]DEAAFV[SeN]FWQ-NH2 (staple 1-4, 4-11, Stapled peptide) [I-131: Ac-PL3-Asp-Ala-B5-Asp-Glu-Ala-Ala-Phe-Val-SeN-Phe-Trp-Gln-NH2]	2.16 µM
Ac-[αAllylPro]DA[B5]DEAAFV[S7]FWQ-NH2 (staple 1-4, 4-11, Stapled peptide) [I-132: Ac-PL3-Asp-Ala-B5-Asp-Glu-Ala-Ala-Phe-Val-S7-Phe-Trp-Gln-NH2]	5 µM
B2	5 µM
Ac-[αAllylPro]DA[B5(28)]DEAAFV[S8]FW[Aib]-NH2 (staple 1-4, 4-11, Stapled peptide) [I-134: Ac-PL3-Asp-Ala-B5-Asp-Glu-Ala-Ala-Phe-Val-S8-Phe-Trp-Aib-NH2]	2.7 µM
Ac-[αAllylPro]DA[B5(21)]DEAAFV[S8]F[2Nal]Q-NH2 (staple 1-4, 4-11, Stapled peptide) [I-140: Ac-PL3-Asp-Ala-B5-Asp-Glu-Ala-Ala-Phe-Val-S8-Phe-2NapA-Gln-NH2]	2.27 µM
